Reference: patent publication US7115711 (GENERAL HOSPITAL, dated 2006)

T1: B42-RIP110 (mouse, UniProt Q5U5Q9 20-727)
T1 construct: Clone from a mouse liver cDNA library fused to B42; also called B42-110; B42 fusion 110
T1 sequence: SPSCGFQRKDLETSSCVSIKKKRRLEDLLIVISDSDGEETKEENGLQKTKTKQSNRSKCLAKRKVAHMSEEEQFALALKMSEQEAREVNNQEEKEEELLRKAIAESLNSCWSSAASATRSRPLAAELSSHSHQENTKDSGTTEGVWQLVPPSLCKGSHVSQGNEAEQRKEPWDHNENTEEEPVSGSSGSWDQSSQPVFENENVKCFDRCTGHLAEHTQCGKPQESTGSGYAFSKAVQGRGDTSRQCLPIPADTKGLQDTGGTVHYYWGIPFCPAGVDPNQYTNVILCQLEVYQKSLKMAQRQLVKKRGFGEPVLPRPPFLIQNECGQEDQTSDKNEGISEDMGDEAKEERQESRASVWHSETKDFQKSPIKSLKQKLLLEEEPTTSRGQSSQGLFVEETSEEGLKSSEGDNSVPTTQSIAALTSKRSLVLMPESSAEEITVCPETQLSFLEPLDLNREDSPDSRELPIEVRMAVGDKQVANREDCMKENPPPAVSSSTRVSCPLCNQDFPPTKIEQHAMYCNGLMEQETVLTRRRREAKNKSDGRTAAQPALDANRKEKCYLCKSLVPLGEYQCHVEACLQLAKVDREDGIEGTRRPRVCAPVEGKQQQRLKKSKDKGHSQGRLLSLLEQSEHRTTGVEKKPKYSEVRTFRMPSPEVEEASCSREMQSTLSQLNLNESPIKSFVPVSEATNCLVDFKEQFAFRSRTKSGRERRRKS

T2: LexA-TR (bacterial; rat, UniProt P0A7C2 1-202; P18113 170-461, limits assumed)
T2 construct: also called Lex fusion TR
T2 sequence (looked up): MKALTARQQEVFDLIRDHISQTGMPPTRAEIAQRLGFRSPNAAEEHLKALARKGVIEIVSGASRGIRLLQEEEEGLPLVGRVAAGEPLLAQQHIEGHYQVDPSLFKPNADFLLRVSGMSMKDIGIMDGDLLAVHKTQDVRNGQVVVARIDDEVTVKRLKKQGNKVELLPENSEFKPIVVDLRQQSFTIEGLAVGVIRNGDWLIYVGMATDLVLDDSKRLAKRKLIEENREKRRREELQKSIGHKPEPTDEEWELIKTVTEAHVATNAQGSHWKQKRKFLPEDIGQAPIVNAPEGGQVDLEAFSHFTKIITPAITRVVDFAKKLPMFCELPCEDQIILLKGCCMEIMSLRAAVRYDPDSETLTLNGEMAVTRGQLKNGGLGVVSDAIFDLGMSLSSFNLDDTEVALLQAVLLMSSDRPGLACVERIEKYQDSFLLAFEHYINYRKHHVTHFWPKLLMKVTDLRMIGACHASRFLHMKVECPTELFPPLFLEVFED

B1: B42-RIP13 (other, not shown: large carriers)
chain: DALAALVDAAASAPQMDVSKTKESKHEAARLEENLRSRSAAVSEQQQLEQKNLEVEKRSVQCVCTSSALPSGKAQPHASVVYSEAGKDKGPPPKSRYEEELRTRGKTTITAANFIDVTITRQIASDKDARERGSQSSDSSSSLSSHRYETASDAIEVISPASSPAPPQEKPQAYQPDMVKANQAENESTRQYEGPLHHYRSQQESPSPQQQPPLPPSSQSEGMGQVPRTHRLITLADHICQIITQDFARNQVPSQPSTSTFQTSPSALSSTPVRTKTSSRYSPESQSQTVLHPRPGPRVSPENLVDKSRGSRPGKSPERSHIPSEPYEPISPPQGPAVHEKQDSMLLLSQRGVDPAEQRSDSRSPGSISYLPSFFTKLESTSPMVKSKKQEIFRKLNSSGGGDSDMAAAQPGTEIFNLPAVTTSGAVSSRSHSFADPASNLGLEDIIRKALMGSFDDKVEDHGVVMSHPVGIMPGSASTSVVTSSEARRDEGEPSPHAGVCKPKLINKSNSRKSKSPIPGQSYLGTERPSSVSSVHSEGDYHRQTPGWAWEDRPSSTGSTQFPYNPLTIRMLSSTPPTQIACAPSAITQAAPHQQNRIWEREPAPLLSAQYETLSDSDD
B2: LexA-RXR (other, bacterial;human, UniProt P0A7C2 1-202, looked up)
chain: MKALTARQQEVFDLIRDHISQTGMPPTRAEIAQRLGFRSPNAAEEHLKALARKGVIEIVSGASRGIRLLQEEEEGLPLVGRVAAGEPLLAQQHIEGHYQVDPSLFKPNADFLLRVSGMSMKDIGIMDGDLLAVHKTQDVRNGQVVVARIDDEVTVKRLKKQGNKVELLPENSEFKPIVVDLRQQSFTIEGLAVGVIRNGDWLLAMGMKREAVQEERQRGKDRNENEVESTSSANEDMPVERILEAELAVEPKTETYVEANMGLNPSSPNDPVTNICQAADKQLFTLVEWAKRIPHFSELPLDDQVILLRAGWNELLIASFSHRSIAVKDGILLATGLHVHRNSAHSAGVGAIFDRVLTELVSKMRDMQMDKTELGCLRAIVLFNPDSKGLSNPAEVEALREKVYASLEAYCKHKYPEQPGRFAKLLLRLPALRSIGLKCLEHLFFFKLIGDTPIDTFLMEMLEAPHQMT
notes: also called Lex fusion RXR
B3: B42-PPAR clone starting at amino acid 84 (other, mouse, UniProt P23204 84-468, looked up, not shown: large carriers)
chain: PVIPASTDESPGSALNIECRICGDKASGYHYGVHACEGCKGFFRRTIRLKLVYDKCDRSCKIQKKNRNKCQYCRFHKCLSVGMSHNAIRFGRMPRSEKAKLKAEILTCEHDLKDSETADLKSLGKRIHEAYLKNFNMNKVKARVILAGKTSNNPPFVIHDMETLCMAEKTLVAKMVANGVEDKEAEVRFFHCCQCMSVETVTELTEFAKAIPGFANLDLNDQVTLLKYGVYEAIFTMLSSLMNKDGMLIAYGNGFITREFLKNLRKPFCDIMEPKFDFAMKFNALELDDSDISLFVAAIICCGDRPGLLNIGYIEKLQEGIVHVLKLHLQSNHPDDTFLFPKLLQKMVDLRQLVTEHAQLVQVIKKTESDAALHPLLQEIYRDMY
notes: range 84-C-terminus; Only the start is stated; also called PPAR (three clones)
B4: B42-PPAR clone starting at amino acid 91 (other, mouse, UniProt P23204 91-468, looked up, not shown: large carriers)
chain: DESPGSALNIECRICGDKASGYHYGVHACEGCKGFFRRTIRLKLVYDKCDRSCKIQKKNRNKCQYCRFHKCLSVGMSHNAIRFGRMPRSEKAKLKAEILTCEHDLKDSETADLKSLGKRIHEAYLKNFNMNKVKARVILAGKTSNNPPFVIHDMETLCMAEKTLVAKMVANGVEDKEAEVRFFHCCQCMSVETVTELTEFAKAIPGFANLDLNDQVTLLKYGVYEAIFTMLSSLMNKDGMLIAYGNGFITREFLKNLRKPFCDIMEPKFDFAMKFNALELDDSDISLFVAAIICCGDRPGLLNIGYIEKLQEGIVHVLKLHLQSNHPDDTFLFPKLLQKMVDLRQLVTEHAQLVQVIKKTESDAALHPLLQEIYRDMY
notes: range 91-C-terminus; Only the start is stated; also called PPAR (four clones)
B5: B42-PPAR (plasmid isolated from the screening, as used in Table 1) (other, mouse, UniProt P23204 91-468, looked up, not shown: large carriers)
chain: B4 chain
notes: 'For B42-PPAR, the plasmid isolated from the screening was used'; also called B42 fusion PPAR

Assays:
[1] = molecular target: B2; assay: cell-based or functional assay
[2] = molecular target: T1, B42-RIP110; assay: yeast interaction trap, X-gal plate, with 9-cis-RA; B = blue (strong interaction)
Description: (§1) Interactions of the RIP clones with other superfamily members, including RAR, TR, the glucocorticoid receptor (GR), and MB67, an orphan isolated in this lab (Baes et al., Mol. Cell. Biol. 14:1544–1552, 1994) were also tested using a series of appropriate LexA fusions. In particular, the experiments shown in Table 1 were carried out as follows. Yeast transformants containing a lacZ reporter gene under the control of LexA binding sites and the indicated B42- and Lex-fusion protein expression vectors were transferred onto galactose-Ura⁻His⁻Trp⁻ plates containing X-gal and incubated for two days. Relative levels of β-galactosidase activity were estimated and are depicted as follows: B, blue (strong interaction); LB, light blue (weak interaction); W, white (no interaction); nt, not tested. At least three separate colonies were tested on the same plate for interaction. To test the effects of ligands, 100 µl of a 10^-6M solution of the appropriate ligand was spread onto plates just before inoculation of cells (9-cis-RA for RXR, T3 for TR, and all-trans-RA for RAR). For B42-PPAR, the plasmid isolated from the screening was used. Both full length and truncated RAR fusions to LexA were tested with identical results for all the B42 fusions except B42-110, which was tested only with the full length fusion.

[3] = molecular target: B1; assay: as above
Description: as §1

[4] = molecular target: B2; assay: yeast interaction trap screen; clones showing specific interaction with LexA-RXR; three clones starting at amino acid 84
Description: (§2) From 3×10^6 primary yeast transformants, a number of β-gal expressing colonies were identified in two independent screens carried out in the presence or absence of 9-cis-RA. Since expression of the B42-cDNA fusion proteins was induced by growth on galactose, candidates obtained from each condition were tested for galactose-dependent expression of both β-gal and LEU2, in the presence or absence of 9-cis-RA, using appropriate indicator plates (see below).
(§3) Candidates showing specific interaction with LexA-RXR were sequenced across the B42 fusion junction using an appropriate vector primer, and additional sequence was determined. The deduced amino acid sequences were compared to those in the GenBank and EMBL databases using the GCG (Devereux et al., Nucleic Acids Res. 12:387–395, 1984) and BLAST programs (Altschul et al., J. Mol. Biol. 215:403–410, 1990). […] All of these clones included intact ligand binding domains, as expected from the fact that the major heterodimerization function lies within that domain. For PPAR (Issemann et al., Nature 347:645–650, 1990), three clones started at amino acid 84, just N-terminal to the DNA binding (C) domain, four others started at 91, within the C domain, and one at 170, just past the C domain. For RAR (Leroy et al., EMBO J. 10:59–69), all six clones started at amino acid 132, within the C domain.

[5] = molecular target: B2; assay: yeast interaction trap screen; clones showing specific interaction with LexA-RXR; four clones starting at amino acid 91
Description: as §2, §3

[6] = molecular target: T2, LexA-TR; assay: yeast interaction trap, X-gal plate, with T3; W = white (no interaction)
Description: as §1

With B1 the “β-gal expression (lacZ reporter under LexA binding sites, yeast liquid culture)” value [1] was about 3 fold.

B2: binds [2]; binds [3].

B3: binds [4].

B4: binds [5].

B5: no binding [6].
